Laboratory results taken from US20260042853A1 (REGENTS OF THE UNIVERSITY OF COLORADO A BODY CORPORATE, published 2026).

Target: T1, CCR4-IL2 bispecific immunotoxin
T1 construct: also called CCR4-IL2 IT; CCR4-IL2 immunotoxin
Test: flow cytometry, MFI against concentration of biotinylated immunotoxin on CD25+CCR4+ Hut102/6TG cells, nonlinear least squares fit

B1: human CD25 and human CCR4 together on human CD25+CCR4+ T-cell lymphoma cell line Hut 102/6TG (other)
chain 1: ELCDDDPPEIPHATFKAMAYKEGTMLNCECKRGFRRIKSGSLYMLCTGNSSHSSWDNQCQCTSSATRNTTKQVTPQPEEQKERKTTEMQSPMQPVDQASLPGHCREPPPWENEATERIYHFVVGQMVYYQCVQGYRALHRGPAESVCKMTHGKTRWTQPQLICTGEMETSQFPGEEKPQASPEGRPESETSCLVTTTDFQIQTEMAATMETSIFTTEYQVAVAGCVFLLISVLLLSGLTWQRRQRKSRRTI
chain 2: MNPTDIADTTLDESIYSNYYLYESIPKPCTKEGIKAFGELFLPPLYSLVFVFGLLGNSVVVLVLFKYKRLRSMTDVYLLNLAISDLLFVFSLPFWGYYAADQWVFGLGLCKMISWMYLVGFYSGIFFVMLMSIDRYLAIVHAVFSLRARTLTYGVITSLATWSVAVFASLPGFLFSTCYTERNHTYCKTKYSLNSTTWKVLSSLEINILGLVIPLGIMLFCYSMIIRTLQHCKNEKKNKAVKMIFAVVVLFLGFWTPYNIVLFLETLVELEVLQDCTFERYLDYAIQATETLAFVHCCLNPIIYFFLGEKFRKYILQLFKTCRGLFVLCQYCGLLQIYSADTPSSSYTQSTMDHDLHDAL
notes: whole, on cells; Not a complex: two separate receptors on the same cell; also called human CD25+CCR4+ Hut102/6TG; CD25+CCR4+ CTCL Hut102/6TG
  Kd: 19.7 nM
